Laboratory results as given in the DeepSol protein solubility set.

Assay: soluble on expression in E. coli; label from the status in PepcDB or PDB records

| Sequence | soluble on expression in E. coli |
| --- | --- |
| MSLRPGIKALAEATGYSIATVSKALNGSPMVAPATKALIHRAAADIGYRANARGMALRTGRTCQAAVLMPVTAARDYEWDGVEYTQILSGISQALEGSDYRMSVHVVRNVEDGCEVARRIIDEGLADGLIFSGIRADDPRIDLLDESRFPFVSLGRCRKPLDYAHVDIDNEWAAHAATARLIAGGHRRIALVNPLRHLSYAEDRVDGFLRAFREANLSPSDDLIAEGDLSTHFGRESALGLLDAARPPTAFVCSNESTTLGVLSGLGSRGRRIGVDVDVVAYDDINVSAYFTPPITTFYQPIEVLGRTLGEFLLRRMAGEDARSLKQVFRPRLIERQPDSLGGREGHHHHHH | soluble |
| MSLRPTMTDIAKLTGVSQSTVSLVLNNATGAKFSETTRNKVLKAAHDLGYRLSLREPVSASADERNLIVYLADEISTSPHPVVNIDGARDAAYASGKMLAVYSTHGNADIEKQVLDTTLSNPHVFGVIYATVYTRKVTPPAALSQVPTVLLNCYTGEGGFSSVVPAEVAGGHLATDYLLQSGHRRIGYINGEPWQDASKDRLKGYRTALATADLPFAQEMVRDGDWSSGLGFELTLSLMRESNPPTAIFCANDLTAIGAIEALKQLGLRVPEDVSVLGYDDQEIARHTHPPLSTVVLPNYELGRWAVETLLQEEHNRAAGAPVRHRMVKLDGPLVERGSVRVITEAKEGHHHHHH | soluble |
| MSLRTASVIVDLPTRQTNQPFTYLIPDDLLDFNLLGHRVRVPFGKRNLMGYVVAVGQSERSDFQLKKIESIIDEKPVLNSEMLKLSEWLSNYVFSYRVQVIQTILPNAFKPKYLKGLKIVDQVPEKIKENIFLNNQEIEFLPKNYTSEQIKVINSLIRQGKIVQTTTIQKKNKGKKVKVLSNNLNDNDIATNLNKKSLSDSQKKLLIFLSGHRDGFFQVKELAEILDISKSTILTAEKKSWLKKSEVRMTRNPVKKIAVTKTNAVELNSDQKKVFNSVESAITKNENKTFLLEGITGSGKTEVYLQLIEKTIAQGKTALLLVPEIALTPQMIRLVKSRFLDSVALLHSGLSDGERLDQWEEIRDGKIKIVIGTRSAVFSPLTNIGLIIMDEEHETNYKQEGNPRYHARDIALWRAKYHQAVTLLGSATPSLESRARAQKGIFKLLTMNHRAVSGAKLPDVSIVDMREVWQKEHADNDFSPTLLKKIEERKENHEQTILLLNRRGFSSFVMCRNCGYVPRCPNCNLSLTLHMDSHSLKCHYCGYEEAIPKKCPVCGSPQIRYVGTGTEKIETKLNSLVNGIRVARLDQDTTKRKGSLEKILRDFGKGNYDVLLGTQMVAKGLDFPDVTLVGVINADIGLNLPDFRSGEKTFQLLTQVAGRSGRAGKTGEVIIQTFNPDNYAIKLAADQNYEGFYKTEMSIRHIADYSPYYYTIQVGIDGPDQFPASRAIDEVAEFIKPKLAKETIVLGPTPKAIAKLRNRYYFQIILKYKKDPNIESTLSELQTVFGEKLPKDIYLSIDRDPVSEGHHHHHH | soluble |
| MSLRTMLTQKFVVDSMLGKIARWLRIMGYDTLYSNDFEDWKILKIAETQKRIIITRDRGIYYRSLKRGLNCILLSPDSNIIQDLAFIALRSKIDLSVNINATRCPQCNSVLSKLSESMWLCPKCKKEYWKGRHWRTIEEIIIKANSELVKLETKNDSRGTGTDTGVKRRDRTVTNRNSEGHHHHHH | soluble |
| MSLRVDTLIRGGVVLTMDGDFTRHDAGYVAVTGGRISHVGADADAAGLSAERVIDAEGGIILPGFVNTHCHAAMTLFRGLADDVDLDGFLRTVWRAEAEHIGPASVELGAELAIAEMALSGVTHFLDMYWYPEATIAAAQRVGMGLTSGPPMLNVEGVDGMGWAERMAYTEGFLERYSGVDGVQPMLLPHGCYTLDADKLAEIANLARAAGCGVHIHAAEAAWEMQLVRDAYGTTPVRALERAGLLEQPLLLAHAVHLDGEEIALLADAGAGVAHCPLSNAKLASGMAPIGEMRASGVTLSLGTDGPASGNDLDMFATMRLAALVHNLRSGTSDTLPARDLVAMATSGGAMALGLGARTGSLEVGKQADITVVATDAPHNVPSYCPYSTLVFSAGRSEVRHVLARGRALVADGRPTTPTEPVKAEVRRLAADIANRRDEGHHHHHH | soluble |
| MSLRVFVCGCVHGSWDIVVDEVNKLVENGTKLDLIIVAGDLEAFITESDLLSYKRPNGTQGFGSFHKIANGEKHLPCKMLVIGGNNESTDIIFQLPFGGWITPDVYFAGRASQIYFGDLLITCTSGVYNVKNYWKKVYEHFPVRKKECYSVNHTRAFSNFQVYGLTQLNIFVTHDWPSGIPKMFRDIIPKKSLVDSDDSNDFGMQDYRKILEKKQPKYWFAAHHHIKFECEPNPGTKFIAVPRVIQDNWYSLQTFDEKPGDFMISGEWINILKKTEEYMKDPSVLKDIDWDEEWTKINSLPSADLPIKVPVMEYNNDYKVQTAKFCETYGIYNPNEGHHHHHH | soluble |
| MSLRVIDTHCDALYKLQAGKGKYTFQDAEELDVNFERLIEAKMLLQGFAIFLDEDIPVEHKWKKAVEQVNIFKQHVLHKGGIIHHVKKWCDLENLPEDKIGAMLTLEGIEPIGRDLDKLTQLLDGGVLSVGLTWNNANLAADGIMEERGAGLTRFGKDIIHLLNERKVFTDVSHLSVKAFWETLEQAEFVIASHSSAKAICAHPRNLDDEQIKAMIEHDAMIHVIFHPLFTTNDGVADIEDVIRHIDHICELGGMKNIGFGSDFDGIPDHVKGLEHAGKYQNFLETLGKHYTKEEVEGFASRNFLNHLPKEGHHHHHH | soluble |
| MSLRVLVMVNDFPNKDNSYTANIFVKEQVKALSEFVEEINVIVPIPRGIELYRKTSYRDYAIGENVHVHFVKYINPLFPIAYSKLRREWIWLEHRALTNFIKKKDIKFDIIHAHYTWPSGAVGVKLKEEYKVPLVITEHTSQTFNRYITTRDPLAREIWQKADIIVRVRKGDIDLFSRVGITPSKIRYIPNGFDGNKFYPIPQEIARRKLNLVEYEKIIINVANMYSRVKGHEYLLRAFSKVAENTSDAFLILVGSGKLLSHLKKLADNLYLGHRVLFAGSKPHDEIPLWMNAADLFVLPSLRESFGVVQIEAMACGVPVVATRNGGSEEIIISEDYGLLCEPANPKELAEKILIALEKEWDREKIRKYAEQFTWENIAKKTLEVYRGVLKEGHHHHHH | soluble |
| MSLSDARLVADLSDVFTDIGVEHAVSGAQIEEFVARMPEVGHSLVAVHRRLRAATEELEGYRSRATAETELPPARPMPFEEVRDFFYDRNNYIHDLDMAAERMFTESGMRTGGLDIQLAELMRDRFGISVVIDDNLPDTAKRRYHPDTKVLRVAHWLMPGQRAFQIATQLALVGQSDLISSIVATDDQLSTEARGVARIGLANYFAGAFLLPYREFHRAAEQLRYDIDLLGRRFGVGFETVCHRLSTLQRPRQRGIPFIFVRTDKAGNISKRQSATAFHFSRVGGSCPLWVVHDAFAQPERIVRQVAQMPDGRSYFWVAKTTAADGLGYLGPHKNFAVGLGCDLAHAHKLVYSTGVVLDDPSTEVPIGAGCKICNRTSCAQRAFPYLGGRVAVDENAGSSLPYSSTEQSVEGHHHHHH | soluble |
| MSLSDVAKKVGVSPITISRALRNPEIVSEDLRQTILRTVDEMGYIPNLAARALAGRHNGTVGVITPALHQHGFAGLMLGIEDRLRATEFGVQYSNTLHHADGEAGQLKSFLMQKPAGVIIAGAESYHDLLPLIEKAACPIAHITDLSQEPERLVVGLDHHAAGAEPTRFLLSRGYQRIGFIGGGTDVRSRRRREGYEAAMREAGRFDPDLAIGADAAGTTGLGRELLTRLLARVPDIDAVFAQNDELALGVLIECGVRGIRVPENFGICGFNDLEFSAFTEPSLTTVHIPRYEVGYRVADMLLRAVRSEPPGEEKVDCGFSVIPRGSTREGHHHHHH | soluble |
| MSLSDWIDASFTTKQTDAAKSSSQTKPKSVNQVKLDVPLVNQMTTPRLYNGCEVTSLTMLMNYAHINVTKNELAAKITSVPLTYSDGEHGNPEYGFVGDITGNDPGLGVYHKPIYKLAKTETSQVKDLTGANFDTVIEQLEQGRPVWTITTASFAPVSTMQTWQTPQGSVKVTYDMHSVVIVGFNRTKKLIYINNPYGEKQQAVSWKNFEAAYNQMGKQAIVLTLPHEGHHHHHH | soluble |
| MSLSEALERLIDQGVGREPADIVLKGGRFFDLVTGELVASDIAISGERIVGTCGDYEGREEIDVTGRIVVPGFIDTHLHIESSLVTPHEFDRCVLPLGITTVVCDPHEIANVLGTEGIQYFLDSAMETVMDIRVQLSSCVPATHLETSGADLPVGRLTPFRHHPKVIGLAEFMNFPGVVNKDPVCLAKLDAFQDGHIDGHAPLLRGKELNGYLAAGIRTDHECTSAEEALEKIRKGMHILVREGSVSKDLQALMPILTERLSPYLALCTDDRNPLDIAEQGHLDNMIRTAISAGVEPLAIYRAASISAARAFGLRDRGLVAPGWRADLVIVDSLENCKAELVLSAGRRVTDALFAGRKPVEPVGLDSVKAREVKAADFGLPYNEGETSVLGVLPGKIITEHRRYRLPAEGNRTGVDLDRDIIKVAVIERHGVNGNHANGFVQGFGLKKGAIASTVGHDSHNICVVGVNDDDMALAVNRLGEIKGGFVVVHDGKVTGEIALPVAGLMSLEPYERVRDTLHHLRQAAFALGATLEEPFLQLAFLPLPVIPHLKISDRGLVDVDRFMLIGEGHHHHHH | soluble |
| MSLSEKMRRIVEAAGGIVWRWKAGSDIANDPAIASSKSAQEQLDSIEVCIVHRPKYDDWSWPKGKLEQNETHRHAAVREIGEETGSPVKLGPYLCEVEYPLSEEGKKTRHSHDCTADTKHTLYWMAQPISADDAEHLLDAFGPVHRADVGEINDIVWVSVREARKILSHSTDKDTLAVFVDRVQEGAATAQNLLIVRHAKAESRKSWKGTDANRPITPKGAAMAFALNRELACFNPTRLATSPWLRCQETLQVLSWQTERPMEHINTLTEDAFAEHPAVSWLAFREQITQTLNSRETTAICMHRPVIGGMYDHLRGLCARKQLAKQLIAKSPYMPTGTAMSLFIIDTPQGPSIIDIQKVSPIVYEGHHHHHH | soluble |
| MSLSETLRLGLICAGRMGSFHGQTAALRIPGACLAAIADPTPGQAARLATELGVERFYTDPQQLLDDPDIDGVLIAAPARSHAELVISAARAGKGVFCEKPMAITLDEADRAIAAAADAQVTLQVGFNRRFAKSFRTAHLDVVAGRIGTPQLLRSLTRDPALNNPAASPQWVIFLETLIHDFDSLRYLNPGAEAVEVFVMADALIAPDYKSKGFLDTAVVTIRFDNGAIATAEANFQAVYGYDVRGEVFGSAGMLTMGSVNDSDLVRYLANGIQSDTQRLDTDLLRDAYVAELNHFADCLRTGAKPLASGEDARAALAIARACIESFQLGKAVRVEGARSEGHHHHHH | not soluble |
| MSLSIALIAPYESLATLCRSICQELDLDVSVHTGSMEDGVRIARNLMAEGVDFFISRGLTAQLIREQCPLPVAELEVSAFDIYLCLEPLLRSGKSIGVVGHSDILRKAKGASAALGFTIDFYATAHPGGMGHIMEAARRQGIAAIAGDAVAARTAERYGMEGVLVQNGADSVTNTLQYAVATYSYLTRQATMAGRLQTVLDRMDGGALLASPDGRMLHCNAAVRAMLEPDQGCTETSMDDLFPQLDWRAVPEGRAETVRELVTVGGSKLAVTVTGTMHDDAMDALICTFHDVRQIEQLEHSFRKSEGHHHHHH | soluble |
| MSLSIPTIKQVRAFVLRGGGADYHDQGDGHWIDDHISTPMGKYPEYRQSRRSFGINVLGTLVVEIEASDGNVGFAVTTGGEPAAYIVEKHLARFLEGARVTDIERIWDQMYNSTLYYGRKGLVINTISGVDLALWDLLGKVRREPVHQLLGGAVRDELQFYATGARPDLAQKMGFIGGKMPLHHGPSEGEEGLKKNLEELATMRERVGPDFWLMFDCWMSLDLNYATRLARGAREYGLKWIEEALPPDDYWGYAELRRNAPTGMMVTTGEHEATRWGFRMLLEMGCCDIIQPDVGWCGGVTELLKISALADAHNALVVPHGSSVYSYHFVATRQNSPFAEFLMMAPKADQVVPMFHPQLLGEPVPENGRMRLSRLDQPGFGVTLNPECQLHRPYTHEGHHHHHH | soluble |
